# Experimental data as given in publication PMC10531356, “Hardening of Respiratory Syncytial Virus Inclusion Bodies by Cyclopamine Proceeds through Perturbation of the Interactions of the M2-1 Protein with RNA and the P Protein” (International Journal of Molecular Sciences, 2023).
# Where no end group is shown, it is not given here. The star is where a group is joined. FITC = O=C1OC2(c3ccc(O)cc3Oc3cc(O)ccc32)c2ccc(NC(=S)*)cc21
# B1: FITC-P(95-112) peptide (peptide)
# peptide: {FITC}-DNPFSKLYKETIETFDNN
# notes: also called synthetic FITC-P peptide; P peptide; source: synthetic peptide, bought: Proteogenix
# What was measured:
# [1] = biological target: M2-1(R151K)-mCherry mutant (human respiratory syncytial virus (hRSV), strain Long); assay: SEC; Hi-Load 16/600 Superdex 200, 20 mM Tris-HCl pH 7.4, 150 mM NaCl, after GST cleavage
# [2] = biological target: M2-1-mCherry fusion protein (wild type) (human respiratory syncytial virus (hRSV), strain Long); assay: as above
# [3] = biological target: T1, M2-1 core domain (wild type) (human respiratory syncytial virus …, UniProt P04545 58-177, 15N-labelled for NMR); assay: MST; FITC-P95-112 fixed at 100 nM, M2-1core 0 to 33.5 µM, PBS with 1% DMSO and 0, 1 or 10 µM CPM, 20 °C, Monolith NT.115; conditions: both partners purified
# T1 construct: C-terminal globular core domain of M2-1 of hRSV strain Long, from pGEX-M2-1core; UniProt entry of strain Long not known to me; also called 15N-M2-1core; WT M2-1core
# T1 sequence: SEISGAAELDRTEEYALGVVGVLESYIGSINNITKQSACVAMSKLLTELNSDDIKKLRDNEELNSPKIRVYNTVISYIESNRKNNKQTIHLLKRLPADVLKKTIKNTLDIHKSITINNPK
molecule,measurement,setting,value
M2-1(R151K)-mCherry mutant (natural protein),stoichiometry N,[1],4
M2-1-mCherry fusion protein (wild type) (natural protein),stoichiometry N,[2],4
B1,Kd,[3],~20 µM
